Measured values reported in patent publication US20200190201A1.
Values belong to the molecule of their own block, whether it stands above or below them.

What was measured:
[1] = target: human TrkC (full-length TrkC receptor) (human) (UniProt Q16288); assay: flow cytometry on HEK293 cells stably expressing TrkC-FL, background controls
human TrkB (human) = human TrkB (human) (UniProt Q16620); assay: cell-based or functional assay
[2] = target: rat TrkB (on rat spiral ganglion neurons) (rat) (UniProt Q63604); assay: cell-based or functional assay
Chain of UniProt Q63604 (Q63604 32-821): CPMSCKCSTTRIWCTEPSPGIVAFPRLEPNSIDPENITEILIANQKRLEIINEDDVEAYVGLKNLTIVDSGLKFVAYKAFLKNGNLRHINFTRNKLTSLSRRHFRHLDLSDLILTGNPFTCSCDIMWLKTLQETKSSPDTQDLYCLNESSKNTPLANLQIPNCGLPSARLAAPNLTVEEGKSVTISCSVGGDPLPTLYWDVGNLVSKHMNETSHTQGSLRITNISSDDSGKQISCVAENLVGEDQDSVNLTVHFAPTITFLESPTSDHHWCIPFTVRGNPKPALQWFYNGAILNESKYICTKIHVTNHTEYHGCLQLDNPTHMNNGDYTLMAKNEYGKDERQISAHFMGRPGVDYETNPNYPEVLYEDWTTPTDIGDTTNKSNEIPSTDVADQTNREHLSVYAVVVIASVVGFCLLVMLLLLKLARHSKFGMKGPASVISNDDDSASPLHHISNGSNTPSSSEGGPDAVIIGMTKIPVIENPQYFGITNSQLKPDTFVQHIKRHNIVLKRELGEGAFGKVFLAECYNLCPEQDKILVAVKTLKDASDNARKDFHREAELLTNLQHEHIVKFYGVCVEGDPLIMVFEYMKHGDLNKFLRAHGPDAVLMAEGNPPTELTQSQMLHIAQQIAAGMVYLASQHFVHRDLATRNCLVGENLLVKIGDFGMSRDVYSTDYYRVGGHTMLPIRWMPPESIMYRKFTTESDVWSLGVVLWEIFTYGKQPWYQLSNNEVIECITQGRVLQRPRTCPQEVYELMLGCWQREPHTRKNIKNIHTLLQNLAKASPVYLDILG

[3] = target: human TrkC (full-length TrkC receptor) (human) (UniProt Q16288); assay: cell-based or functional assay
[4] = target: rat TrkC (on rat spiral ganglion neurons) (rat) (UniProt Q03351); assay: cell-based or functional assay
Chain of UniProt Q03351 (Q03351 32-864): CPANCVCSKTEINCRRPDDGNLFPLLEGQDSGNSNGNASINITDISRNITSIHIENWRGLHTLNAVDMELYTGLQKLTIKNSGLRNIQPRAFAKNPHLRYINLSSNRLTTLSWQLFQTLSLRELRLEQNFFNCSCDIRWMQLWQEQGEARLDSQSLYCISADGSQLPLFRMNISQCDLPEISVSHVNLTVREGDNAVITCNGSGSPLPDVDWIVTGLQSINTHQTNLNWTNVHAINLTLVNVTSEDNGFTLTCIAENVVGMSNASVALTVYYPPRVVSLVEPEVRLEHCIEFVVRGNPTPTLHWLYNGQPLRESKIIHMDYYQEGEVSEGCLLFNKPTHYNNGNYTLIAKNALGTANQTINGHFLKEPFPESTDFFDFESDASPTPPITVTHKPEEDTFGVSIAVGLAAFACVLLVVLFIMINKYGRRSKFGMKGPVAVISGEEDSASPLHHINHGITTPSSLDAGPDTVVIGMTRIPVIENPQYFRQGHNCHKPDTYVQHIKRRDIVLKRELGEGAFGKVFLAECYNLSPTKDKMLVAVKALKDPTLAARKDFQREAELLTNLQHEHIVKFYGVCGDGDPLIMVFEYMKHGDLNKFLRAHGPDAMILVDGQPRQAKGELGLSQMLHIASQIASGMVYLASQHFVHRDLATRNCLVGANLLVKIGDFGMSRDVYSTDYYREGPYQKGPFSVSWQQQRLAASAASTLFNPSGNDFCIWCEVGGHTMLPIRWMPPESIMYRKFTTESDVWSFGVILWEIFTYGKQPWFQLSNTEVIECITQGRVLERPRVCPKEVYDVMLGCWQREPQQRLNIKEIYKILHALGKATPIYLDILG

Chain of UniProt Q16620 (Q16620 32-822): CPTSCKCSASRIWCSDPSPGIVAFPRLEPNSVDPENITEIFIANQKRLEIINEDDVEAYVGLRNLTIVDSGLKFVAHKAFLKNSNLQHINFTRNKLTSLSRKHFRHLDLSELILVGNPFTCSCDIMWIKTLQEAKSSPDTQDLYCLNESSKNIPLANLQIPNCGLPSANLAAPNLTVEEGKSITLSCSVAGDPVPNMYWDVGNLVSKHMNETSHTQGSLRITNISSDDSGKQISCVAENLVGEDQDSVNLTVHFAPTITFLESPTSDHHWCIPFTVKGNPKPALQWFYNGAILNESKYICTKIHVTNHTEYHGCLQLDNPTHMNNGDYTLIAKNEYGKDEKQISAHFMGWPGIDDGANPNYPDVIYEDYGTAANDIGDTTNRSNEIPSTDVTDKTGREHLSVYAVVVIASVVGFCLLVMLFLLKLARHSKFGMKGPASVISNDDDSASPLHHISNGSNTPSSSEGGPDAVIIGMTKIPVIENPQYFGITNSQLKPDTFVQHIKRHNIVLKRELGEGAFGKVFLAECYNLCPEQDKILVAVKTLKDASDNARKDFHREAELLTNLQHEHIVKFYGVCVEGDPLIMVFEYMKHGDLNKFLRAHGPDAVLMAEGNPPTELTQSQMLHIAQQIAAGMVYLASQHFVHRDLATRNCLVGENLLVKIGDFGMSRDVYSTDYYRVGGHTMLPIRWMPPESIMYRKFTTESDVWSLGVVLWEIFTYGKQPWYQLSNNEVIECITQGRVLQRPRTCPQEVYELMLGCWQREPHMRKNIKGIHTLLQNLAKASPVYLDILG
Chain of UniProt Q16288 (Q16288 32-839): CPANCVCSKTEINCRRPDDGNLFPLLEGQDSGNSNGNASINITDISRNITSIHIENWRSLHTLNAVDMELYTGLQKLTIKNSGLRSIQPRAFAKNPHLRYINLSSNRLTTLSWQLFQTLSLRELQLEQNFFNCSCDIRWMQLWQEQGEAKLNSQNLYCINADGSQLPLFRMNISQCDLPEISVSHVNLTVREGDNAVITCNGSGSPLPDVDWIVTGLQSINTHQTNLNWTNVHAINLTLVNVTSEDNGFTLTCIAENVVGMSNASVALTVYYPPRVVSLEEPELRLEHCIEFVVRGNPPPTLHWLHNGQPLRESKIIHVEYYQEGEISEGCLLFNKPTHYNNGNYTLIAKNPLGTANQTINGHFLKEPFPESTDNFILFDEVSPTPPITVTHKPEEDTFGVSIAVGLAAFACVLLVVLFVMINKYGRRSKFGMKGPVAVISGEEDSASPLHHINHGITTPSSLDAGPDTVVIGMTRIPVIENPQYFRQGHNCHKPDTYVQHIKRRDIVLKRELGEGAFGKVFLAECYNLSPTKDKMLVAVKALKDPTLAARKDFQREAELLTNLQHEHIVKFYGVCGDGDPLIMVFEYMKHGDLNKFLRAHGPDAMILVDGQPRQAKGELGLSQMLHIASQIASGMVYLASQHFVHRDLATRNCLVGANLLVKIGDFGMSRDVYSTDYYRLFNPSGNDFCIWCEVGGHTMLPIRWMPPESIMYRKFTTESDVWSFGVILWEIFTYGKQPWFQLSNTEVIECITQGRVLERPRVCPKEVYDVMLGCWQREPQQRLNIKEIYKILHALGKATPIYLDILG

mean channel fluorescence (mean channel fluorescence) [1]: 10
Molecule: control mIgG (irrelevant mouse IgG, isotype-matched controls) (antibody)

EC50 of p-ERK response in HEK293 cells expressing human TrkB (AlphaLisa) (human TrkB (human)): 0.3 nM
Maximal Effect % of p-ERK response in HEK293 cells expressing human TrkB (relative to 10 nM BDNF) (human TrkB (human)): 100%
B1: brain-derived neurotrophic factor (BDNF) (ligand, UniProt P23560 129-247, looked up)
chain: HSDPARRGELSVCDSISEWVTAADKKTAVDMSGGTVTVLEKVPVSKGQLKQYFYETKCNPMGYTKEGCRGIDKRHWNSQCRTTQSYVRALTMDSKKRIGWRFIRIDTSCVCTLTIKRGR
rat spiral ganglion neuron survival relative to 1 nM NT-3 (100%) [2]: 92%

EC50 of p-ERK response in 3T3 cells expressing human TrkC (AlphaLisa) [3]: 0.3 nM
B2: neurotrophin-3 (NT-3) (ligand)
chain: YAEHKSHRGEYSVCDSESLWVTDKSSAIDIRGHQVTVLGEIKTGNSPVKQYFYETRCKEARPVKNGCRGIDDKHWNSQCKTSQTYVRALTSENNKLVGWRWIRIDTSCVCALSRKIGRT
surviving rat spiral ganglion neurons per well, 4 days in culture [4]: 10 to 20 neurons/well
